The values below come from US20260176336A1 (MESTAG THERAPEUTICS, published 2026).

To fix the notation:
B1: Clone 1.4 (VHH, not shown: small tags and cut ends)
VHH: EVQLVESGGGLVQPGGSLRLSCKASGTTFSDRAFGWYRQAPGKQRELVATISTAGLTWYDVSVKGRFIISRDNPENTVYLQMNSLRPEDTAVYYCNTFRGNWGQGTLVTVSS
notes: monovalent anti-LTBR VHH; also called 1.4 (parental clone for 1.6)
B2: Clone 1.2 (VHH, not shown: small tags and cut ends)
VHH: EVQLVESGGGLVQPGGSLRLSCAASGSSIFSFEIMAWYRQAPGKQRELVAVINKGGEANYPDSVEGRFTISRDNAKNTVYLQMNSLRPEDTAVYYCNADAVPHGSYWGQGTLVTVSS
notes: monovalent anti-LTBR VHH; also called 1.2 (parental clone for 1.5)
B3: Clone 1.3 (VHH, not shown: small tags and cut ends)
VHH: EVQLVESGGGLVQPGGSLRLSCAASGRTFTNYRMAWFRQAPGKEREAVAAINWNGGGTYYADSVKGRFTISRDNAKNTVYLQMNSLRPEDTAVYYCAADSTGWGSYFDYWGQGTLVTVSS
notes: monovalent anti-LTBR VHH; also called 1.3 (parental clone for 1.8)
B4: Clone 1.1 (VHH, not shown: small tags and cut ends)
VHH: EVQLVESGGGLVQPGGSLRLSCAASGRFFGIYDMYWYRQPPGKQRELVAISTSGGHTNYADSVKGRFTISRDNAKNTVYLQMNSLRPEDTAVYYCNIQRVDAPGMYWGQGTLVTV
notes: monovalent anti-LTBR VHH; also called 1.1 (parental clone for 1.7)
B5: Clone 4.16 (bispecific antibody)
heavy 1: not shown
heavy 2: QVQLVQSGTEVKKPGASVKVSCKASGYTFTGYYMNWVRQAPGQGLEWVGWINPNSGDTNFAQKFQGRVTMTRDSSISTAYMELSRLRSDDTAVYYCARQFRGYSYGYGMDVWGKGTTVTVSSASTKGPSVFPLAPSSKSTSGGTAALGCLVKDYFPEPVTVSWNSGALTSGVHTFPAVLQSSGLYSLSSVVTVPSSSLGTQTYICNVNHKPSNTKVDKKVEPKSCDKTHTCPPCPAPEAAGGPSVFLFPPKPKDTLMISRTPEVTCVVVDVSHEDPEVKFNWYVDGVEVHNAKTKPREEQYNSTYRVVSVLTVLHQDWLNGKEYKCKVSNKALPAPIEKTISKAKGQPREPQVCTLPPSRDELTKNQVSLSCAVKGFYPSDIAVEWESNGQPENNYKTTPPVLDSDGSFFLVSKLTVDKSRWQQGNVFSCSVMHEALHNHYTQKSLSLSPG
light: not shown
B6: Clone 4.17 (bispecific antibody)
heavy 1: not shown
heavy 2: QLQLQESGPGLVKPSETLSLTCTVSGGSISSSTYYWGWIRQPPGKGLEWIGSIFYSGNTYYNPSLKSRVTISVDTSKNQFSLRLNSVTAADTAVYYCAREIIEPRPGYFDYWGQGTLVTVSSASTKGPSVFPLAPSSKSTSGGTAALGCLVKDYFPEPVTVSWNSGALTSGVHTFPAVLQSSGLYSLSSVVTVPSSSLGTQTYICNVNHKPSNTKVDKKVEPKSCDKTHTCPPCPAPEAAGGPSVFLFPPKPKDTLMISRTPEVTCVVVDVSHEDPEVKFNWYVDGVEVHNAKTKPREEQYNSTYRVVSVLTVLHQDWLNGKEYKCKVSNKALPAPIEKTISKAKGQPREPQVCTLPPSRDELTKNQVSLSCAVKGFYPSDIAVEWESNGQPENNYKTTPPVLDSDGSFFLVSKLTVDKSRWQQGNVFSCSVMHEALHNHYTQKSLSLSPG
light: not shown
B7: Clone 4.18 (bispecific antibody)
heavy 1: not shown
heavy 2: B6 heavy 2
light: not shown
B8: Clone 3.2 (antibody, V domains shown)
VH: QVQLVQSGAEVKKPGASVKVSCKASGYTFTGYYMHWVRQAPGQGLEWMGWIYPNTGGTNYAQNFQGRVTMTRDTSISTAYMELSSLRSDDTAVYYCARDDYNKNLDYWGQGTLVTVSS
VL: DIQMTQSPSTLSASVGDRGTITCRASQSIGSWLAWYQQKPGKTPKLLIYKASSLESGVPSRFSGSGSGTEFTLTISSLQPDDFATYYCQQYNSYFRTFGQGTKVEIK
notes: anti-FAP mAb (bivalent)
B9: Clone 3.4 (antibody, V domains shown)
VH: EVQLVESGGGLVKPGGSLRLSCVASGFTFSLAWMNWVRQAPGKGLEWVGHIKSRADGGSTDYAAPVKGRFTISRDDSKNTLYLHMNSLKTEDTAVYFCSRFYWNYVLDYWGQGTLVTVSS
VL: DIQMTQSPSSLSASVGDRVTITCRASQSINSYFNWYQQKPGKAPKLLIYAASGLQSGVPSRFSGSGSGTDFTLTISSLQPEDFATYYCQQSYSPPYTFGQGTNLEIK
notes: anti-FAP mAb (bivalent)
B10: Clone 3.1 (antibody, V domains shown)
VH: QLQLQESGPGLVKPSETLSLTCTVSGGSISSSTYYWGWIRQPPGKGLEWIGSIFYSGNTYYNPSLKSRVTISVDTSKNQFSLRLNSVTAADTAVYYCAREIIEPRPGYFDYWGQGTLVTVSS
VL: B9 VL with N30S, S31K, F33L, L46F, G53S, Y92N, P94I, Y96R, N103K, L104V
notes: anti-FAP mAb (bivalent)

Positions count from the first letter of the chain named.

The target in one test is T1, human LTBR endogenously expressed on cells (HepG2, A549, A375, HCC1187, RPMI-7951, primary human breast CAFs) (human, UniProt P36941 31-435).
T1 construct: also called lymphotoxin beta receptor; TNFRSF3
T1 sequence (P36941 31-435): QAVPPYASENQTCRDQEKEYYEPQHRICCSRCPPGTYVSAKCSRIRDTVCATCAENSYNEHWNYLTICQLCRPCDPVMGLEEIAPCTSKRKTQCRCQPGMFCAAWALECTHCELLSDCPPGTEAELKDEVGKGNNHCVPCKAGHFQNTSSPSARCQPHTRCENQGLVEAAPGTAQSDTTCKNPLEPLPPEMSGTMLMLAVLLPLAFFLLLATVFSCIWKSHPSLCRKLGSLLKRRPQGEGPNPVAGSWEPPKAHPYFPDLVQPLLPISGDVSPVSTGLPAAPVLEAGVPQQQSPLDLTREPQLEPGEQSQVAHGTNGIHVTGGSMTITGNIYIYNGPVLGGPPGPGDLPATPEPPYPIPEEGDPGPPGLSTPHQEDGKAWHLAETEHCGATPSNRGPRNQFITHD
Briefly: flow cytometry, HepG2 cells, VHH detected by anti-FLAG. The protocol:
The purified proteins were tested for binding to endogenously expressed human LTBR in HepG2 cells. The expression level was confirmed with anti-LTBR clone CBE-11 (“huCBE11” as disclosed in WO2004002431). The HepG2 cells were resuspended to a final concentration of 1.0×10⁶ cells/ml in FACS buffer. A series dilution of purified VHHs was incubated with mouse anti-FLAG biotinylated antibody (Sigma Aldrich, cat. #F9291-1MG) at 5 μg/ml in FACS buffer for 30 min at RT with shaking. Cell suspensions were distributed into a 96-well v-bottom plate and incubated with the above-described VHH/antibody mixture for 1 hour on ice while shaking. VHH binding to cells was detected with streptavidin R-PE (Invitrogen, cat. #.SA10044) at 1:400 dilution (0.18 μg/ml) in FACS buffer, incubated for 30 minutes on ice with shaking and protection from light. The cells were acquired by flow cytometry. The data was analysed using FloJo V10 and GraphPad Prism. The EC50 values can be found in.
Regarding B1, the 50% effective concentration (EC50) is 2.3 nM.
Molecule B2 gave an EC50 of 1.6 nM.
Same read-out and setting: as for B3, the figure is 1.2 nM.
The same measure, in the same setting: the value for B4 was 0.41 nM.

In the next test the target is T1, human LTBR endogenously expressed on …. The test can be described thus: cell-based or functional assay.
On to B5, for which the “HepG2 Reporter assay, HepG2:FAP-CHO-K1 Co-culture EC50” value (from here on “HepG2 Reporter assay”) was found to be 0.016 nM.
Consider B6, for which the “HepG2 Reporter assay” value came out at 0.017 nM.
Take B7: the “HepG2 Reporter assay” value came out at 0.023 nM.

Another test concerns the target T2, human FAP expressed on cells (transfected HEK293; FAP-CHO-K1 recombinant cell line, BPS cat no. 79947) (human, UniProt Q12884 1-760).
T2 construct: also called HuFAP-HEK293; Hek-FAP
The test can be described thus: flow cytometry, human FAP-transfected HEK293 cells. The method, then: The binding of antibodies to human FAP expressed on transfected HEK293 cells was measured by FACS. In addition, binding to parental HEK293 was tested to confirm antibody specificity. In short, the cells were resuspended in the FACS binding buffer and live/dead efluro450 viability dye was added at a 1:1000 dilution to the cell suspension, followed by incubation at room temperature in the dark for 30 minutes. The cells were then diluted to 2 e5/ml, and 100 ul was added to wells of a 96-well U-bottom plate as required. […] The cells were pelleted by centrifugation, and the supernatant was discarded, followed by the addition of a series of dilutions of anti-FAP antibodies and incubation for 45 minutes at 4° C. in the dark. Cells were washed two times with PBS with 3% (w/v) BSA before adding 60 ul of fluorescently labelled secondary antibody (goat anti-human IgG) diluted to 1:200 in PBS. Incubation continued at 4 C for at least 30 minutes, followed by two washes in PBS pH 7.4. Cells were either fixed with 2% PFA (30 minutes at 4° C.) followed by washout and storage in 100 ul of PBS or immediately analysed on a Flow Cytometer. The data was analysed using FloJo V10 and GraphPad Prism. No binding to the HEK parental cell line was detected for any tested clones, confirming the specific interaction between anti-FAP antibodies and the FAP receptor. The results are summarised in.
As for B8, the EC50 is 0.7 nM.
Still for that read-out and setting: the value for B9 was 1.1 nM; that for B10 was 1.7 nM.

In another test the target is T2, human FAP expressed on cells …. Briefly: flow cytometry, HEK293-FAP overexpressing cells.
As for B5, the EC50 is 0.4 nM.
In the case of B6, the EC50 was found to be 0.8 nM.
In the case of B7, the EC50 turned out to be 1 nM.

A further test has as its target T1, human LTBR endogenously expressed on …. Briefly: cell-based or functional assay. This is another data set of the same source.
As to B5, the “chemokine (CCL5) induction in RPMI-7951 EC50” value was 0.0078 nM.
As for B6, the “chemokine (CCL5) induction in RPMI-7951 EC50” value amounted to 0.01 nM.
Still for that read-out and setting: as for B7, the figure is 0.067 nM.

For another test the target is unchanged. The test can be described thus: cell-based or functional assay. The source holds these as a separate data set.
Take B5: the “CCL19 upregulation, HCC1187:CAF Co-culture EC50” value is 0.09 nM.
Same read-out and setting: as for B6, the figure is 0.06 nM; as for B7, 0.12 nM.

The target of the next test is T3, cynomolgus recombinant LTBR fused on human Fc (SinoBiological, cat. #90101-C02H) (cynomolgus (Macaca fascicularis), UniProt P36941 31-227 (human entry)).
T3 construct: bought protein
T3 sequence (P36941 other isoform, or with tags, fused parts or gaps C02H C02H limits assumed): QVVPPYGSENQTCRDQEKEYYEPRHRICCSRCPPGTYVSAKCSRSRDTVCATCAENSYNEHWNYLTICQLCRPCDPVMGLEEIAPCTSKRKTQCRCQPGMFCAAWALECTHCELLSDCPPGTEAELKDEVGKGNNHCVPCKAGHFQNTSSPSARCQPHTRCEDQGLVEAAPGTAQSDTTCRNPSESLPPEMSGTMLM
Briefly: SPR (Biacore T200), LTBR-Fc on CM5 chip, periplasmic extract as analyte. The method, then:
(§1) To confirm species cross-reactivity, either human or cynomolgus recombinant LTBR-fused on human Fc (SinoBiological, cat. #10581-H02H and 90101-C02H) were immobilised on CM5 sensor chips (cat. #CFJB 334). 1:5 dilutions of crude periplasmic extracts of clones expressing VHHs were injected at 30 μl/min for 2 min in HBS-EP pH 7.4 buffer to allow for binding to chip-bound antigen. Next, an HBS-EP pH7.4 buffer without VHHs was injected for 5 minutes at the same flow rate to enable spontaneous dissociation of bound VHHs. Surface regeneration was done with 10 ul of 1 mM Glycine pH 1.5/1 M NaCl injected twice between samples. From the sensorgrams obtained on a BiacoreT200 machine, koff values were calculated by fitting a 1:1 interaction model (Langmuir model) using Insight Evaluation Software (Biacore). Based on this analysis, four clones were selected for further evaluation, and the results are included in.
As to B1, the koff was 0.00097 s⁻¹.
Still for that read-out and setting: as for B2, the figure is 0.0026 s⁻¹; as for B3, 0.0031 s⁻¹.
B4: the koff worked out at 0.0014 s⁻¹.

The target of another test is T4, human recombinant LTBR fused on human Fc (SinoBiological, cat. #10581-H02H) (human, UniProt P36941 31-227).
T4 construct: bought protein; also called human LTBR human IgG1 Fc chimera protein; not shown: human IgG1 Fc
T4 sequence (P36941 31-227 limits assumed): as the sequence (P36941 other isoform, or with tags, fused parts or gaps C02H C02H limits assumed) above, with V2A, G7A, R24Q, S45I, D163N, R181K, S184L, S186P counted along it
Described as above. The method, then:
as §1
Take B1: the koff worked out at 0.0018 s⁻¹.
Same read-out and setting: as for B2, the figure is 0.00069 s⁻¹.
On the same count and under the same terms, the value for B3 was 0.0038 s⁻¹; that for B4 was 0.0008 s⁻¹.

Another test deals with Human FAP (Acro), recombinant protein (human, UniProt Q12884 26-760). The test can be described thus: SPR (Carterra LSA), antibody captured by anti-human Fc, FAP as analyte. The protocol:
(§2) Binding of anti-FAP antibodies to human and cynomolgus FAP was investigated by Surface Plasmon Resonance (SPR) on Carterra LSA. An EC30M chip was used to capture the test antibodies. The chip was activated for bioconjugation using EDC and sNHS in MES pH 5.5 to prepare the chip for amine coupling. Goat anti-human IgG Fc antibody was then captured to the chip via incubation for 10 minutes. Excess conjugation sites were quenched with 1M Ethanolamine pH 8. To measure monovalent binding kinetics, antibodies were printed/spotted onto the chip and allowed to bind to the goat antibody, followed by subsequent washing. After the preparation, the printed chip was exposed to repeated rounds of association and dissociation with increasing analyte concentrations. In this work, recombinant proteins (Human FAP (Acro) or cyno FAP His (Acro)) were serially diluted across a range starting at 1500 nM with 3-fold dilutions and 10 points. The curves were fitted to global fit in a 1:1 binding model to obtain KD values. The binding affinity to both human and cynomolgus FAP is reported in.
B8: the Kd was 0.047 nM.
Still for that read-out and setting: as for B9, the figure is 0.033 nM; as for B10, 0.04 nM.

The target in a further test is T5, cyno FAP His (Acro), recombinant protein (cynomolgus (Macaca fascicularis), UniProt Q12884 26-760 (human entry)).
T5 construct: bought protein used as analyte on Carterra LSA
Described as above. The method, then:
as §2
Turning to B8, the Kd turned out to be 0.028 nM.
B9: the Kd is 0.03 nM.
Consider B10, for which the Kd is 0.051 nM.
